Results published in US9333272B2, “Fibrin binding peptide conjugates for diagnostic and therapeutic applications” (Bracco Imaging SpA, priority 2006, dated 2016).
Ends that are not written are not given here.

Biological target: T1, fibrin in tumor, Neuro 2A neuroblastoma (Mus musculus, UniProt E9PV24+Q8K0E8+Q8VCM7)
T1 construct: from tissue; host or cells: tumor stroma of living mice (BALB-neuT mammary tumor, TRAMP prostate tumor, Neuro-2a neuroblastoma in A/J mice)
T1 sequence (E9PV24 20-557 isoform E9PV24-2 limits assumed): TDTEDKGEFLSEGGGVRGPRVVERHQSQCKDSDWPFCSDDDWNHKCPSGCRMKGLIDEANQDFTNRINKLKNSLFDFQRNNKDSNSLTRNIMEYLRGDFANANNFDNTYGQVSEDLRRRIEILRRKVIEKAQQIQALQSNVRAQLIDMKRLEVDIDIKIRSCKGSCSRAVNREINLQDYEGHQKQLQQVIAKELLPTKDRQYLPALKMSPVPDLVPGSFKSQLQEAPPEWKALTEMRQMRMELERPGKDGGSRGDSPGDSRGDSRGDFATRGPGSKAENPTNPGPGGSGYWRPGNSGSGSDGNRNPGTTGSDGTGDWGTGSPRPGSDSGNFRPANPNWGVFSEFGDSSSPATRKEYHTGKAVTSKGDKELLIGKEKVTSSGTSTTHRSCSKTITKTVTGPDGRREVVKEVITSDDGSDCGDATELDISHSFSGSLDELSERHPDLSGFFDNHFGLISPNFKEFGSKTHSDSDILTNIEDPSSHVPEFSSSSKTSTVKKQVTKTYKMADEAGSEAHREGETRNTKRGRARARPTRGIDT
T1 sequence (Q8K0E8 35-481 limits assumed): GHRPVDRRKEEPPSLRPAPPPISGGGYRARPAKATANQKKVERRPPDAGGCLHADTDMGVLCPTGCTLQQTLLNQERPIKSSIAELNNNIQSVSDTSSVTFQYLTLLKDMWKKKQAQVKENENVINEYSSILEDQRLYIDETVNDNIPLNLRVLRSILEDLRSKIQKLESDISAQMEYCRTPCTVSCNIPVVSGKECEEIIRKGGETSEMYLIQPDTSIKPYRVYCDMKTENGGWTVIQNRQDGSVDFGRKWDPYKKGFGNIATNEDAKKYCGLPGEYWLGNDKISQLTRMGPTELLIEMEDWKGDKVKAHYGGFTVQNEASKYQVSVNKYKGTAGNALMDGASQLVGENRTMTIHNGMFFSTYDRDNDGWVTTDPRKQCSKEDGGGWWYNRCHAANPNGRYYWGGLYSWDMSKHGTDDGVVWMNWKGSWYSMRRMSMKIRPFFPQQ
T1 sequence (Q8VCM7 26-436): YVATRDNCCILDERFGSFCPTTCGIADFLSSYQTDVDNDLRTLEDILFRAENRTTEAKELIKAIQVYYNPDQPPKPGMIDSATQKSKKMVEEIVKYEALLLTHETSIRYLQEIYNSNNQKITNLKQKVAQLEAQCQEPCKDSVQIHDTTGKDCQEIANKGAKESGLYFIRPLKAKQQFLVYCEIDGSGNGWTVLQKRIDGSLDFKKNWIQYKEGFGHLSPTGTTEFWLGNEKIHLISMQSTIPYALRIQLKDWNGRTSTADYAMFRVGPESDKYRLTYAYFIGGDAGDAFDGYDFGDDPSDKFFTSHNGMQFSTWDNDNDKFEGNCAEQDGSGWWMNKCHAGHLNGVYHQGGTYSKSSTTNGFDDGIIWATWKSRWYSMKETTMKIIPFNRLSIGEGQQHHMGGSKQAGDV
Test: In vivo MRI, neuroblastoma tumor induced by Neuro 2A cells, Example 18
Details: 25 μmol/kg of complex, 4 h post injection, 2T
Procedure: This test has been performed on mice with neuroblastoma tumor induced by inoculation of 2.10^6 Neuro 2A cells.
Two groups of 5 mice each inoculated were formed to test the Reference compound 2 and the Chelate complex 1.
At day-10 post tumor cells inoculation, mice with similar tumor size (5-10 mm in diameter) were selected for the in vivo MRI tests. Before and post contrast administration, T1 and T2 high resolution 2D spin-echo and 3D gradient echo images were acquired. MRI was performed at 4 h and 24 h post injection. The maximum signal intensity was measured in the entire tumor area and in each image post contrast covering the whole tumor and compared to the pre-contrast images. At the end of MRI exams, all animals were sacrificed and the tumor, blood, liver, kidneys and femoral bone were removed and prepared for Gd assay by ICP. […]
The signal intensity was measured within a region of interest (ROI) including the entire tumor, drawn by an operator on each MR image using a dedicated software (MR Research Systems Ltd, Surrey UK). Signal intensity enhancement (Enh %) was determined as: Enh %=100*(SIx(t)−SI0)/SI0 where SI0 and SIx(t) were the signal intensity of tumor pre and post injection of the contrast agent (test articles or reference), respectively.

## Chelate Complex 1: Gd chelate (four DTPA-Glu) conjugated via linker to fibrin-binding peptide SEQ ID NO:001 (WQPCPAESWTFCWDPGGGK; cysteine pairing not given here; also: Gd chelate (four DTPA-Glu) conjugated via linker, site not given here, metal complex: Gd)
  Tumor signal enhancement (T1 weighted MRI), in words: high signal enhancement inside tumor
Listed as chelate complex 1
  Tumor signal enhancement (T1 weighted MRI), in words: significant tumor signal enhancement
